In article PMC4072508, “Genome-Wide Prediction and Validation of Peptides That Bind Human Prosurvival Bcl-2 Proteins” (PLoS Computational Biology, 2014):

T1: Bcl-w, Q92843
T1 chain: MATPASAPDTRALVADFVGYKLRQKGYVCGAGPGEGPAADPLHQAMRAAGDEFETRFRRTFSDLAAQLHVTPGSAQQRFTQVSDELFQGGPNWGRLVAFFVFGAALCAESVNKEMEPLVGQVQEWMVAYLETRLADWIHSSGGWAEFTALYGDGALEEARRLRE

T2: Mcl-1, Q07820
T2 chain: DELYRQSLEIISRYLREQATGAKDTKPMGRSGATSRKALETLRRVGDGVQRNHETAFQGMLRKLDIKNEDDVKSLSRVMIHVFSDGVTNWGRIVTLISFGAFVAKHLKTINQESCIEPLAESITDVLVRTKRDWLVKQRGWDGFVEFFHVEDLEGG

T3: Bfl-1, Q16548
T3 chain: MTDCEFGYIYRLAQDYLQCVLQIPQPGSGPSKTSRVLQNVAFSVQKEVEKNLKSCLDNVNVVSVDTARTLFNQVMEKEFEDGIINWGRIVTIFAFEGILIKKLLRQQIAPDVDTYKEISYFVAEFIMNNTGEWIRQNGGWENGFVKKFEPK


What was measured:
Assay in all cases: peptide SPOT array, c-Myc-tagged receptor at 1 uM or 100 nM, anti-c-Myc-Cy3
Bcl-2, P10415 = molecular target: Bcl-2, P10415
Bcl-xL, Q07817 = molecular target: Bcl-xL, Q07817
Bcl-w, Q92843 = molecular target: T1, Bcl-w, Q92843
Mcl-1, Q07820 = molecular target: T2, Mcl-1, Q07820
Bfl-1, Q16548 = molecular target: T3, Bfl-1, Q16548

Bcl-xL, Q07817, sequence (Q07817 1-209): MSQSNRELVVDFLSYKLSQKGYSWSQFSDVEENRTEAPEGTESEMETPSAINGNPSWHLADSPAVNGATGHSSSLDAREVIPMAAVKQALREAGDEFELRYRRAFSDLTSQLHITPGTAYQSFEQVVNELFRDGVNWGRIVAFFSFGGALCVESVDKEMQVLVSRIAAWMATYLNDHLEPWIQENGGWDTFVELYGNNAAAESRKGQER
Bcl-2, P10415, sequence (P10415 1-217): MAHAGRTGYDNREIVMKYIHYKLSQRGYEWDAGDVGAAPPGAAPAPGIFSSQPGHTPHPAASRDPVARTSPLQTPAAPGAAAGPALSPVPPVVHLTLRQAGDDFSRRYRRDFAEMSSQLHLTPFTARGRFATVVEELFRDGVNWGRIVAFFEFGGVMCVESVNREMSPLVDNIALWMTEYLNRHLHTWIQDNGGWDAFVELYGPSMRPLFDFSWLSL

Row | Binder | SPOT signal as a fraction of Bim BH3's signal on the same receptor and array (Bcl-2, P10415) | SPOT signal as a fraction of Bim BH3's signal on the same receptor and array (Bcl-xL, Q07817) | SPOT signal as a fraction of Bim BH3's signal on the same receptor and array (Bcl-w, Q92843) | SPOT signal as a fraction of Bim BH3's signal on the same receptor and array (Mcl-1, Q07820) | SPOT signal as a fraction of Bim BH3's signal on the same receptor and array (Bfl-1, Q16548)
1 | KCRHEEVVQVLRNAGEEVTLTVSFLK [SNTG1] | 0.01 | 0.02 | 0.01 | 0.02 | 0.02
2 | ASEASLFEEALEKYGKDFNDIRQDFL [MTA3] | 0.01 | 0.02 | 0.02 | 0.02 | 0.01
3 | YNLKSPAVKRLMKEAAELKDPTDHYH [UBE2J1] | 0.03 | 0.19 | 0.08 | 0.05 | 0.13
4 | NKDGKSVSNRLRRLSDNCGGKVLSIT [KIAA0430] | 0.13 | 0.56 | 0.61 | 0.21 | 0.31
5 | LGHTGLACLFLKRGADLGARDSEGRD [ACAP1] | 0.03 | 0.14 | 0.1 | 0.045 | 0.21
6 | SSTMGQVGRQLAIIGDDINRRYDSEF [BAK1] | 0.27 | 0.4 | 0.72 | 0.84 | 0.4
7 | EQKLKQHVENLNQVAEKLEEKHSQIT [CCDC68] | 0.01 | 0.03 | 0.02 | 0.02 | 0.01
8 | ASGNKEMIEALKQYAMDYSNKALEKG [IFIT3] | 0.01 | 0.06 | 0.04 | 0.03 | 0.04
9 | DFMGRTFAKPLVKMADEAYCPPRFPP [OTOF] | 0.06 | 0.26 | 0.14 | 0.1 | 0.1
10 | DSLAKFAGRKLKDCGEDLLVEISEVL [PCM1] | 0.01 | 0.02 | 0.02 | 0.02 | 0.01
11 | FDHMVPLVEEINRLADELNPLNASQE [C7orf26] | 0.01 | 0.02 | 0.02 | 0.02 | 0.01
12 | LKELDLSGNSLSHSAVKSLCKTLRRP [NLRP1] | 0.09 | 0.4 | 0.41 | 0.13 | 0.42
13 | GMTSEQVAQVLRNCGNSVRMLVARDP [INADL] | 0.04 | 0.18 | 0.06 | 0.07 | 0.15
14 | RTNNYQLSDELRKNGVELTSLRQKVA [GRIPAP1] | 0.14 | 0.39 | 0.51 | 0.19 | 0.48
15 | ASEANLFEEALEKYGKDFTDIQQDFL [MTA1] | 0.01 | 0.03 | 0.02 | 0.03 | 0.01

Now from value to binder:

Row | SPOT signal as a fraction of Bim BH3's signal on the same receptor and array (Bcl-2, P10415) | SPOT signal as a fraction of Bim BH3's signal on the same receptor and array (Bcl-xL, Q07817) | SPOT signal as a fraction of Bim BH3's signal on the same receptor and array (Bcl-w, Q92843) | SPOT signal as a fraction of Bim BH3's signal on the same receptor and array (Mcl-1, Q07820) | SPOT signal as a fraction of Bim BH3's signal on the same receptor and array (Bfl-1, Q16548) | Binder
16 | 0.02 | 0.05 | 0.03 | 0.04 | 0.09 | DIDEGLYSRQLYVLGHEAMKRLQTSS [UBA1]
17 | 0.03 | 0.2 | 0.11 | 0.08 | 0.33 | PRPLSILGNLLLLCSQDMLTSLTKLS [CYP2F1]
18 | 0.01 | 0.02 | 0.01 | 0.02 | 0.01 | EKNLPKMAEALAHGADVNWANSEENK [ACAP2]
19 | 0.01 | 0.03 | 0.02 | 0.03 | 0.02 | AIPRAEVAELLVHSGDFLVRESQGKQ [FES]
20 | 0.02 | 0.06 | 0.03 | 0.04 | 0.04 | TCLNRGFSRLLDNMAEFFRPTEQDLQ [PEX3]
21 | 0.01 | 0.02 | 0.02 | 0.02 | 0.11 | CQGDTVISECLQRFADSLQEVVNYHM [ACAP3]
22 | 0.03 | 0.16 | 0.13 | 0.06 | 0.16 | RAGELDRARELMRIGKRFGAVLEALE [CC2D1B]
